Test results taken from US20260049138A1 (Chugai, published 2026).
Numbering of substitutions follows the chain as printed. Names and notes keep the numbering of the source. Values belong to the binder of their own block, whether it stands above or below them.

Molecular target: T1, CD3ε homodimer protein (human, UniProt P07766 23-126, limits assumed)
T1 construct: also called CD3 (CD3ε)
Assay: SPR Biacore T200, CD3ε homodimer on chip;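 further: Light-chain single-residue variant antibodies injected over amine-coupled CD3ε homodimer on a CM4 chip at 25 °C, bound amount divided by that of the GLS3000-containing antibody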

T1 sequence (P07766 23-126 limits assumed): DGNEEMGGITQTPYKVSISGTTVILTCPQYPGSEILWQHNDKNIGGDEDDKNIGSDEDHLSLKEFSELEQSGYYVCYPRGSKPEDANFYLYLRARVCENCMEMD

ratio of amount bound vs unaltered GLS3000: 0.23
B1: GLS3000 K50A one-arm antibody (antibody, human IgG1, kappa, L234A L235A, N297A, name in Kabat numbering)
heavy: QVQLVESGGGVVQPGRSLRLSCAASGFTFSNAWMHWVRQAPGKGLEWVAQIKAKSNNYATYYAESVKGRFTISRDDSKNSLYLQMNSLKTEDTAVYYCRYVHYGAYYGVDAWGQGTTVTVSSASTKGPSVFPLAPSSKSTSGGTAALGCLVKDYFPEPVTVSWNSGALTSGVHTFPAVLQSSGLYSLSSVVTVPSSSLGTQTYICNVNHKPSNTKVDKKVEPKSCDKTHTCPPCPAPEAAGGPSVFLFPPKPKDTLMISRTPEVTCVVVDVSHEDPEVKFNWYVDGVEVHNAKTKPREEQYASTYRVVSVLTVLHQDWLNGKEYKCKVSNKALPAPIEKTISKAKGQPREPQVYTLPPSRCELTKNQVSLSCAVKGFYPSDIAVEWESNGQPENNYKTTPPVLDSDGSFFLVSKLTVDKSRWQQGNVFSCSVMHEALHNHYTQKSLSLSPDYKDDDDK
chain: EPKSSDKTHTCPPCPAPELLGGPSVFLFPPKPKDTLMISRTPEVTCVVVDVSHEDPEVKFNWYVDGVEVHNAKTKPREEQYNSTYRVVSVLTVLHQDWLNGKEYKCKVSNKALPAPIEKTISKAKGQPREPQVCTLPPSRDELTKNQVSLWCLVKGFYPSDIAVEWESNGQPENNYKTTPPVLDSDGSFFLYSKLTVDKSRWQQGNVFSCSVMHEALHNRYTQKSLSLSP
light: DIVMTQSPLSLPVTPGEPASISCRSSQSLVHSNRNTYLHWYQQKPGQAPRLLIYAVSNRFSGVPDRFSGSGSGTDFTLKISRVEAEDVGVYYCGQGTQVPYTFGQGTKLEIKRTVAAPSVFIFPPSDEQLKSGTASVVCLLNNFYPREAKVQWKVDNALQSGNSQESVTEQDSKDSTYSLSSTLTLSKADYEKHKVYACEVTHQGLSSPVTKSFNRGEC

ratio of amount bound vs unaltered GLS3000: 0.22
B2: GLS3000 K50D one-arm antibody (antibody, human IgG1, kappa, L234A L235A, N297A, name in Kabat numbering)
heavy: B1 heavy
chain: B1 chain
light: B1 light with A55D

ratio of amount bound vs unaltered GLS3000: 0.72
B3: GLS3000 L33E one-arm antibody (antibody, human IgG1, kappa, L234A L235A, N297A, name in Kabat numbering)
heavy: B1 heavy
chain: B1 chain
light: B1 light with L38E, A55K

ratio of amount bound vs unaltered GLS3000: 0.23
B4: GLS3000 K50S one-arm antibody (antibody, human IgG1, kappa, L234A L235A, N297A, name in Kabat numbering)
heavy: B1 heavy
chain: B1 chain
light: B1 light with A55S

ratio of amount bound vs unaltered GLS3000: 0.42
B5: GLS3000 L27bF one-arm antibody (antibody, human IgG1, kappa, L234A L235A, N297A, name in Kabat numbering)
heavy: B1 heavy
chain: B1 chain
light: B1 light with L29F, A55K

ratio of amount bound vs unaltered GLS3000: 0.3
B6: GLS3000 K50P one-arm antibody (antibody, human IgG1, kappa, L234A L235A, N297A, name in Kabat numbering)
heavy: B1 heavy
chain: B1 chain
light: B1 light with A55P

ratio of amount bound vs unaltered GLS3000: 0.24
B7: GLS3000 K50Y one-arm antibody (antibody, human IgG1, kappa, L234A L235A, N297A, name in Kabat numbering)
heavy: B1 heavy
chain: B1 chain
light: B1 light with A55Y

ratio of amount bound vs unaltered GLS3000: 0.71
B8: GLS3000 L27bM one-arm antibody (antibody, human IgG1, kappa, L234A L235A, N297A, name in Kabat numbering)
heavy: B1 heavy
chain: B1 chain
light: B1 light with L29M, A55K

ratio of amount bound vs unaltered GLS3000: 0.25
B9: GLS3000 L27bY one-arm antibody (antibody, human IgG1, kappa, L234A L235A, N297A, name in Kabat numbering)
heavy: B1 heavy
chain: B1 chain
light: B1 light with L29Y, A55K

ratio of amount bound vs unaltered GLS3000: 1.19
B10: GLS3000 L27bI one-arm antibody (antibody, human IgG1, kappa, L234A L235A, N297A, name in Kabat numbering)
heavy: B1 heavy
chain: B1 chain
light: B1 light with L29I, A55K

ratio of amount bound vs unaltered GLS3000: 0.78
B11: GLS3000 L33F one-arm antibody (antibody, human IgG1, kappa, L234A L235A, N297A, name in Kabat numbering)
heavy: B1 heavy
chain: B1 chain
light: B1 light with L38F, A55K

ratio of amount bound vs unaltered GLS3000: 0.26
B12: GLS3000 L27bW one-arm antibody (antibody, human IgG1, kappa, L234A L235A, N297A, name in Kabat numbering)
heavy: B1 heavy
chain: B1 chain
light: B1 light with L29W, A55K

ratio of amount bound vs unaltered GLS3000: 0.24
B13: GLS3000 K50E one-arm antibody (antibody, human IgG1, kappa, L234A L235A, N297A, name in Kabat numbering)
heavy: B1 heavy
chain: B1 chain
light: B1 light with A55E

ratio of amount bound vs unaltered GLS3000: 0.5
B14: GLS3000 K50R one-arm antibody (antibody, human IgG1, kappa, L234A L235A, N297A, name in Kabat numbering)
heavy: B1 heavy
chain: B1 chain
light: B1 light with A55R

ratio of amount bound vs unaltered GLS3000: 0.83
B15: GLS3000 L33I one-arm antibody (antibody, human IgG1, kappa, L234A L235A, N297A, name in Kabat numbering)
heavy: B1 heavy
chain: B1 chain
light: B1 light with L38I, A55K

ratio of amount bound vs unaltered GLS3000: 0.71
B16: GLS3000 L27bS one-arm antibody (antibody, human IgG1, kappa, L234A L235A, N297A, name in Kabat numbering)
heavy: B1 heavy
chain: B1 chain
light: B1 light with L29S, A55K

ratio of amount bound vs unaltered GLS3000: 0.3
B17: GLS3000 L33P one-arm antibody (antibody, human IgG1, kappa, L234A L235A, N297A, name in Kabat numbering)
heavy: B1 heavy
chain: B1 chain
light: B1 light with L38P, A55K

ratio of amount bound vs unaltered GLS3000: 0.94
B18: GLS3000 K107E one-arm antibody (antibody, human IgG1, kappa, L234A L235A, N297A, name in Kabat numbering)
heavy: B1 heavy
chain: B1 chain
light: B1 light with A55K, K112E

ratio of amount bound vs unaltered GLS3000: 0.24
B19: GLS3000 K50L one-arm antibody (antibody, human IgG1, kappa, L234A L235A, N297A, name in Kabat numbering)
heavy: B1 heavy
chain: B1 chain
light: B1 light with A55L

ratio of amount bound vs unaltered GLS3000: 0.85
B20: GLS3000 L33A one-arm antibody (antibody, human IgG1, kappa, L234A L235A, N297A, name in Kabat numbering)
heavy: B1 heavy
chain: B1 chain
light: B1 light with L38A, A55K

ratio of amount bound vs unaltered GLS3000: 0.17
B21: GLS3000 L27bE one-arm antibody (antibody, human IgG1, kappa, L234A L235A, N297A, name in Kabat numbering)
heavy: B1 heavy
chain: B1 chain
light: B1 light with L29E, A55K

ratio of amount bound vs unaltered GLS3000: 0.17
B22: GLS3000 L27bD one-arm antibody (antibody, human IgG1, kappa, L234A L235A, N297A, name in Kabat numbering)
heavy: B1 heavy
chain: B1 chain
light: B1 light with L29D, A55K

ratio of amount bound vs unaltered GLS3000: 0.91
B23: GLS3000 L27bP one-arm antibody (antibody, human IgG1, kappa, L234A L235A, N297A, name in Kabat numbering)
heavy: B1 heavy
chain: B1 chain
light: B1 light with L29P, A55K

ratio of amount bound vs unaltered GLS3000: 1.05
B24: GLS3000 L33V one-arm antibody (antibody, human IgG1, kappa, L234A L235A, N297A, name in Kabat numbering)
heavy: B1 heavy
chain: B1 chain
light: B1 light with L38V, A55K

ratio of amount bound vs unaltered GLS3000: 0.16
B25: GLS3000 K50G one-arm antibody (antibody, human IgG1, kappa, L234A L235A, N297A, name in Kabat numbering)
heavy: B1 heavy
chain: B1 chain
light: B1 light with A55G

ratio of amount bound vs unaltered GLS3000: 0.17
B26: GLS3000 L33D one-arm antibody (antibody, human IgG1, kappa, L234A L235A, N297A, name in Kabat numbering)
heavy: B1 heavy
chain: B1 chain
light: B1 light with L38D, A55K

ratio of amount bound vs unaltered GLS3000: 1.12
B27: GLS3000 L27bV one-arm antibody (antibody, human IgG1, kappa, L234A L235A, N297A, name in Kabat numbering)
heavy: B1 heavy
chain: B1 chain
light: B1 light with L29V, A55K

ratio of amount bound vs unaltered GLS3000: 0.84
B28: GLS3000 K74T one-arm antibody (antibody, human IgG1, kappa, L234A L235A, N297A, name in Kabat numbering)
heavy: B1 heavy
chain: B1 chain
light: B1 light with A55K, K79T

ratio of amount bound vs unaltered GLS3000: 0.19
B29: GLS3000 K50T one-arm antibody (antibody, human IgG1, kappa, L234A L235A, N297A, name in Kabat numbering)
heavy: B1 heavy
chain: B1 chain
light: B1 light with A55T

ratio of amount bound vs unaltered GLS3000: 0.93
B30: GLS3000 L33M one-arm antibody (antibody, human IgG1, kappa, L234A L235A, N297A, name in Kabat numbering)
heavy: B1 heavy
chain: B1 chain
light: B1 light with L38M, A55K

ratio of amount bound vs unaltered GLS3000: 0.19
B31: GLS3000 N28D one-arm antibody (antibody, human IgG1, kappa, L234A L235A, N297A, name in Kabat numbering)
heavy: B1 heavy
chain: B1 chain
light: B1 light with N33D, A55K

ratio of amount bound vs unaltered GLS3000: 0.18
B32: GLS3000 K50Q one-arm antibody (antibody, human IgG1, kappa, L234A L235A, N297A, name in Kabat numbering)
heavy: B1 heavy
chain: B1 chain
light: B1 light with A55Q

ratio of amount bound vs unaltered GLS3000: 0.4
B33: GLS3000 N28E one-arm antibody (antibody, human IgG1, kappa, L234A L235A, N297A, name in Kabat numbering)
heavy: B1 heavy
chain: B1 chain
light: B1 light with N33E, A55K

ratio of amount bound vs unaltered GLS3000: 0.25
B34: GLS3000 N28A one-arm antibody (antibody, human IgG1, kappa, L234A L235A, N297A, name in Kabat numbering)
heavy: B1 heavy
chain: B1 chain
light: B1 light with N33A, A55K
